The values below come from publication PMC6754446, “Regulation of the endosomal SNX27-retromer by OTULIN” (Nature Communications, 2019).

Settings in all cases: both partners purified
In assay [1] the target is T1, OTULINcat (aa 80-352) (human, UniProt Q96BN8 80-352). In words: ITC; PDZ variant (150-450 µM) in the syringe, OTULINcat variant (20-30 µM) in the cell; 25 °C; 20 mM HEPES pH 7.4, 200 mM NaCl, 2 mM TCEP; single-site binding model.
Assay [2] addresses SNX27 PDZ domain (aa 40-135) (human, UniProt Q96L92 40-135). In words: ITC; SNX27PDZ in the cell; OTULINcat, OTULIN PDZbm peptide or VPS26A in the syringe; 25 °C; 20 mM HEPES pH 7.4, 200 mM NaCl, 2 mM TCEP; single-site binding model. On the technique in general: In ITC the heat of successive injections is recorded.
Assay [3] addresses T1, OTULINcat (aa 80-352). In words: ITC; SHANK1-3 PDZ in the syringe, OTULINcat in the cell; 30 °C; 20 mM HEPES pH 7.4, 200 mM NaCl, 2 mM TCEP; single-site binding model.
Another assay concerns the target SNX27PDZ (aa 40–135) (human, UniProt Q96L92 40-135). Briefly: ITC; 25 °C, 20 mM HEPES pH 7.4, 200 mM NaCl, 2 mM TCEP; 20–30 µM OTULINcat variant in the cell, 150–450 µM PDZ variant in the syringe; single-site model.
The next assay concerns the target T2, OTULINcat (aa 80–352) (human, UniProt Q96BN8 80-352).
T2 construct: OTULIN, human, aa 80–352; His6-3C construct in pOPIN-B; tag cleaved with 3C protease; source: E. coli Rosetta2 (DE3) pLacI, purified (HisTrap, anion exchange, SEC)
Described as above.

No end group written: not given here.

T1 sequence (Q96BN8 80-352): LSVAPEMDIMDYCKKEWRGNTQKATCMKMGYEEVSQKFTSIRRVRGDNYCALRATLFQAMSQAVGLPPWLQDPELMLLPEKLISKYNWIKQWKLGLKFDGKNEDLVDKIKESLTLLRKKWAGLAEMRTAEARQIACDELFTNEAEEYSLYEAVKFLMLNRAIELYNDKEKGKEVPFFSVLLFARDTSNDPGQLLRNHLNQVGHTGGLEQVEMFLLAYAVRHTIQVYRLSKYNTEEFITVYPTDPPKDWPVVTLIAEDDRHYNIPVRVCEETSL
T2 sequence (Q96BN8 80-352): as above

B1: LNX2 PDZ3 (465-560) (domain or fragment, UniProt Q8N448 465-560, looked up)
chain: QEKHITVKKEPHESLGMTVAGGRGSKSGELPIFVTSVPPHGCLARDGRIKRGDVLLNINGIDLTNLSHSEAVAMLKASAASPAVALKALEVQIVEE
notes: LNX2, third PDZ domain, residues 465-560; The printed DNA (288 nt) fits 96 residues; source: E. coli, purified analogous to SNX27PDZ (pOPIN-S vector)
For orientation: Kd means the concentration at which binding is half-saturated. A higher Kd goes with weaker binding. A word on the stoichiometry N: it is a count of units in the complex or per binding partner. As to B1, in the assay with OTULINcat (aa 80-352) [1], the Kd is 57.1 µM and the “stoichiometry N” value came out at 0.87.

B2: OTULIN C-terminal PDZbm peptide (aa 344-352) (peptide)
peptide: Ac-VRVCEETSL
notes: OTULIN, human, C-terminal PDZbm peptide, aa 344-352; also called OTULIN PDZbm peptide
On to B2, for which the “stoichiometry N” value in assay [2] came out at 1.07.

B3: SHANK3 PDZ domain (563-671) (domain or fragment)
chain: SDYVIDDKVAVLQKRDHEGFGFVLRGAKAETPIEEFTPTPAFPALQYLESVDVEGVAWRAGLRTGDFLIEVNGVNVVKVGHKQVVALIRQGGNRLVMKVVSVTRKPEED
modifications: Printed 563-671 follows the older 1731-aa SHANK3 numbering; offset +75 to the current 1806-aa entry (inferred by homology to the SHANK2 start, 8 residues before the annotated PDZ). The His6-SUMO tag …
With B3, in the assay with OTULINcat (aa 80-352) [3], the Kd came to 26.4 µM and the “stoichiometry N” value was 1.

B4: PSD95 PDZ2 (155-249) (domain or fragment, UniProt P78352 155-249, looked up)
chain: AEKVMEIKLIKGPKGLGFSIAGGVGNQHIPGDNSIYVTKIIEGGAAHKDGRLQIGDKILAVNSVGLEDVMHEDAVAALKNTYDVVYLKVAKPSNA
notes: PSD95, second PDZ domain, residues 155-249; The printed DNA (285 nt) fits 95 residues; source: E. coli, purified analogous to SNX27PDZ (pOPIN-S vector)
As for B4, in the assay with OTULINcat (aa 80-352) [1], the Kd was 98.9 µM and the “stoichiometry N” value came to 0.91.

B5: OTULIN C-terminal PDZbm peptide (aa 344–352) (peptide, UniProt Q96BN8 344-352, looked up)
peptide: VRVCEETSL
notes: OTULIN, human, aa 344–352; also called OTULIN PDZbm peptide
Consider B5, for which binding in the assay with SNX27PDZ (aa 40–135) was put at a Kd of 1100 nM.

B6: RhoGEF PDZ domain (41-123) (domain or fragment, UniProt O15085 41-123, looked up)
chain: TGLVQRCVIIQKDQHGFGFTVSGDRIVLVQSVRPGGAAMKAGVKEGDRIIKVNGTMVTNSSHLEVVKLIKSGAYVALTLLGSS
notes: RhoGEF, PDZ domain, residues 41-123; The printed DNA (249 nt) fits 83 residues; source: E. coli, purified analogous to SNX27PDZ (pOPIN-S vector)
Take B6: in the assay with OTULINcat (aa 80-352) [1], the Kd worked out at 38.3 µM and the “stoichiometry N” value was 0.96.

B7: NHERF1 PDZ2 (150-235) (domain or fragment, UniProt O14745 150-235, looked up)
chain: LRPRLCTMKKGPSGYGFNLHSDKSKPGQFIRSVDPDSPAEASGLRAQDRIVEVNGVCMEGKQHGDVVSAIRAGGDETKLLVVDRET
notes: The printed DNA (258 nt) fits 86 residues; source: E. coli, purified analogous to SNX27PDZ (pOPIN-S vector)
For B7, in the assay with OTULINcat (aa 80-352) [1], the Kd is 35.6 µM and the “stoichiometry N” value worked out at 1.14.

B8: SHANK1 PDZ domain (654-763) (domain or fragment, UniProt Q9Y566 654-763, looked up)
chain: GSDYIIKEKTVLLQKKDSEGFGFVLRGAKAQTPIEEFTPTPAFPALQYLESVDEGGVAWRAGLRMGDFLIEVNGQNVVKVGHRQVVNMIRQGGNTLMVKVVMVTRHPDMD
notes: source: E. coli, purified analogous to SNX27PDZ (pOPIN-S vector)
B8: in the assay with OTULINcat (aa 80-352) [3], binding was characterised by a dissociation constant (Kd) of 22.6 µM and the “stoichiometry N” value was found to be 1.

B9: Syntenin1 PDZ1 (domain or fragment, UniProt O00560 114-193, looked up)
chain: EVILCKDQDGKIGLRLKSIDNGIFVQLVQANSPASLVGLRFGDQVLQINGENCAGWSSDKAHKVLKQAFGEKITMTIRDR
notes: Syntenin1, PDZ1; source: expressed and purified analogous to SNX27PDZ (E. coli Rosetta2 (DE3) pLacI); His6-SUMO cleaved with SUMO protease
For the molecule B9, in the assay with OTULINcat (aa 80–352), the Kd stood at 1.71 mM.

B10: SHANK2 PDZ domain (239-347) (domain or fragment)
chain: SDCIIEEKTVVLQKKDNEGFGFVLRGAKADTPIEEFTPTPAFPALQYLESVDEGGVAWQAGLRTGDFLIEVNNENVVKVGHRQVVNMIRQGGNHLVLKVVTVTRNLDPD
modifications: Printed 239-347 follows the older 1470-aa Q9UPX8 numbering; offset +379 to the current 1849-aa entry, so that the start falls on SDCIIEEKTV. The His6-SUMO tag was cleaved off.
For B10, in the assay with OTULINcat (aa 80-352) [3], binding was put at a Kd of 23.9 µM and the “stoichiometry N” value is 0.99.

B11: Syntenin1 PDZ1 (108-196) (domain or fragment, UniProt Q9JI92 108-196, looked up)
chain: AEIKQGIREVILCKDQDGKIGLRLKSVDNGIFVQLVQANSPASLVGLRFGDQVLQINGENCAGWSSDKAHKVLKQAFGEKITMTIRDRP
notes: Syntenin-1, first PDZ domain, residues 108-196; The printed DNA (267 nt) fits 89 residues; source: E. coli, purified analogous to SNX27PDZ (pOPIN-S vector)
Take B11: the “stoichiometry N” value with OTULINcat (aa 80-352) [1] came to 0.38.
